The conditions of series [1]: mouse, in vivo.
The conditions of series [2]: mouse, in vivo. This is another data set of the same source.
The conditions of series [3]: mouse, in vivo. The source holds these as a separate data set.
For series [4] the following is noted: mouse, in vivo, iv.
The conditions of series [5]: mouse, in vivo. This is another data set of the same source.

Consider “^125I-Aβ42: custom synthesized amyloid-β 42 peptide, soluble form, radiolabeled with 125I by the chloramine-T procedure”, for which, in series [1], the “increase in PS values in various brain regions at 52 weeks” value is given as ~ 1.5 fold. Further, in series [2], the “PS product in the whole brain, WT versus APP/PS1 mice” value was “no significant differences” and the “decrease in PS values at various brain regions at 24 weeks” value was ~ 1.5 fold.
As for “^125I-insulin: human insulin (Sigma-Aldrich) radiolabeled with 125I by the chloramine-T procedure”, the “decrease in PS products at various brain regions at 24 weeks compared to 8 weeks” value in series [3] is reported as ~ 5 fold. The “decrease in brain influx clearance (Ki) at 104 weeks compared to 12 weeks” value in series [4] was ~ 2 fold.
As to “^125I-Aβ40: custom synthesized amyloid-β 40 peptide, soluble form, radiolabeled with 125I by the chloramine-T procedure”, in series [5], the “increase in plasma AUC at 52 weeks” value is on record as ~ 7 fold and the “plasma AUC of 125I-Aβ40 relative to 125I-Aβ42” value is reported as ~ 12 fold. The “decrease in PS values in various brain regions at 52 weeks” value in series [1] was ~ 4 fold. For the same substance, in series [2], the “PS product in the whole brain, WT versus APP/PS1 mice” value is “no differences”; the “PS product in the whole brain, lower in APP/PS1 mice compared to WT mice” value was ~ 1.5 fold; the “decrease in PS values at 52 weeks” value is ~ 1.5 fold.

Values taken from publication PMC10846947 (Journal of Alzheimer's disease : JAD, 2022).
